From US8252737B2, “Antimicrobial peptides and methods of use” (priority 2004, dated 2012)

Columns and labels:
[1] = RP-HPLC temperature profiling (hydrophobicity and self-association/dimerization parameter PA); format: physicochemical
Procedure: The retention time data for the peptides is shown in Table 5 which records retention times at 5° C., the maximal retention times and retention times at 80° C. during the temperature profiling. Temperatures of 5° C. and 80° C. were the lower and upper temperature limits of temperature profiling in RP-HPLC, representing dimerization of the peptides at 5° C. and the monomerization of peptides at 80° C. due to dissociation of the dimers. The maximal retention times represent the threshold points at which peptides transform from dimeric to monomeric form. Among the non-polar face substituted peptides, peptides with more hydrophobic substitutions (whether L- or D-amino acid substitutions) were more retained during RP-HPLC, i.e., peptides were eluted in the order of Lys, Gly, Ser, Ala, Val and Leu (Table 5). In addition, on the non-polar face, the L-analogs were always more retained than the D-diastereomers (Table 5, FIG. 5). […] In contrast, on the polar face, the elution order of peptides was not correlated with the order of amino acid side-chain hydrophobicity, e.g., PAL and PSL were more retained than PVL (Table 5); PSD was the most retained peptide among the D-amino acid substituted analogs on the polar face (Table 5).
The ability of the D-peptides to self-associate was determined by RP-HPLC temperature profiling. […] As expected, L- and D-peptide enantiomers were totally inseparable over this temperature range, since each pair of peptides is identical in sequence and must adopt identical conformations on interacting with the reversed-phase matrix, whether in an all-L- or all-D-conformation. RP-HPLC retention behavior has been frequently utilized to represent overall peptide hydrophobicity (53, 26). In the present study, the hydrophobicity of the three peptide pairs is in the order V681/D-V681>[…]>NKL/D-NKD (Table 4), which agrees with the change in hydrophobicity of the substitutions at position 13 in order of the most hydrophobic to the least hydrophobic amino acid residue (Val in V681>Ala in NA>Lys in NK) (54). […] For example, the retention times of peptides V681/D-V681 increase with increasing temperature (up to ˜30° C.) followed by a retention time decrease with a further temperature increase. […] Since peptide C is a monomeric random coil peptide in both aqueous and hydrophobic media, its retention behavior over the temperature range 5° C. to 80° C. represents only general temperature effects on peptide retention behavior, i.e., a linear decrease in peptide retention time with increasing temperature due to greater solute diffusivity and enhanced mass transfer between the stationary and mobile phases at higher temperatures (55). Thus, after normalization to the retention times of peptide C, the retention behavior of the peptides represents only peptide self-association ability. Note that the higher the PA value, the greater the self-association ability. […] From Table 4, it is also clear that the peptide retention times at 80° C. are dramatically lower than those at 5° C.
Elution times during RP-HPLC have frequently been utilized as a measure of relative hydrophobicity of peptide analogs (26, 31). In the current study, peptide analogs differed only by a single amino acid substitution on either the non-polar face or the polar face of V681; thus, the retention time data in Table 5 can be considered to reflect the hydrophobicity difference between peptide analogs. In order to more easily visualize the variation in hydrophobicity of the peptide analogs, the retention time data in Table 5 were normalized relative to that of the native peptide V681 at 5° C. and 80° C., respectively. Hydrophobicity relative to the native peptide V681 indicates an increase or decrease of the apparent peptide hydrophobicity with the different amino acid substitutions on the polar or non-polar face. […]

[2] = 50% TFE, 5° C., previous study (29); cited from earlier work

Ac-ELEKGGLEGEKGGKELEK-amide (Ac-ELEKGGLEGEKGGKELEK-NH2) [peptide C, reference compound]
tR (min) 5° C. ([1]; RP-HPLC retention time at 5° C. during temperature profiling (measure of hydrophobicity)): 22.74 min
tR (min) 80° C. ([1]; RP-HPLC retention time at 80° C. during temperature profiling): 18.64 min
[θ]222 [2]: −3,950
